Assays:
[1] = molecular target: T1, SARS-CoV-2 Wuhan-Hu-1 RBD (SARS-CoV-2, Wuhan-Hu-1 (GenBank …, UniProt P0DTC2)); test: BLI; conditions: both partners purified
[2] = molecular target: T1, SARS-CoV-2 Wuhan-Hu-1 RBD; test: cell-based or functional assay

| Binder | binding result [1] | neutralisation IC50, Wuhan-Hu-1 pseudovirus [2] |
| --- | --- | --- |
| JR173 (antibody, V domains shown) VH: EVQLVESGGGLVQPGRSLRLSCAASGFTFDDYAMHWVRQAPGKGLEWVSGISWNSGRKGYADSVKGRFTISRDNAKNSLHLQMNSLRAEDTALYYCAKDIQEAIEVSSIGFDYWGQGTLVTVSS VL: QSVLTQPPSVSGAPGQRVTISCTGSSSNIGAGYDVHWYQQLPGTAPKLLIYGNSNRPSGVPDRFSGSKSGTSASLAITGLQAEDEADYYCQSYDSSLSGYAVFGGGTQLTVL | binds | 0.0166 µg/mL |
| JR310 (antibody, V domains shown) VH: EVQLVESGGGLIQPGGSLRLSCAASGFTVSSNYMSWVRQAPGKGLEWVSVIYSGGSTYYADSVKGRFTISRDNSKNTLYLQMNSLRAEDTAVYYCARGDPSDYYYYGMDVWGQGTTVTVSS VL: QSVLTQPPSVSGAPGQRVTISCTGSSSNIGAGYDVHWYQQLPGTAPKLLIYGNSNRPSGVPDRFSGSKSGTSASLAITGLQAEDEADYYCQSYDSSLSGSGVFGTGTKVTVL | binds | 0.219 µg/mL |
| JR088 (antibody, V domains shown) VH: QVQLQQSGPGLVKPSQTLSLTCAISGDSVSSDSAAWNWIRQSPSRGLEWLGRTYYRSKWSNDYEVSVKSRITINPDTSKNQFSLQLNSVTPEDTAVYYCAKQQLVLDDAFDIWGQGTMVTVSS VL: QSALTQPRSVSGSPGQSVTISCTGTSSDVGGHNYVSWYEQHPGKAPKLMMYDVSKRPSGVPDRFSGSKSGNTASLTISGLQAEDEADYYCCSYAGSYIWVFGGGTKLTVL | binds | 0.0381 µg/mL |
| JR093 (antibody, V domains shown) VH: QVQLVQSGAEVKKPGSSVKVSCKASGGTFSSYAISWVRQAPGQGLEWMGRIVPILNIANYAQRFQGRVTITADKSTSTAYMELSSLRSEDTAVYYCASPGSLLLGERIDELQFDYWGQGTLVTVSS VL: not shown | binds | 0.131 µg/mL |
| JR090 (antibody, V domains shown) VH: QVQLQQWGAGLLKPSETLSRTCAVYGGSFSGHYWSWIRQPPGKGLEWIGEINHSGSTNYNPSLKSRVTISVDTSKNQFSLKLSSVTAADTAVYYCARGSRAVAGTAVYFDLWGRGTLVTVSS VL: not shown | binds | > 1 µg/mL |
| JR233 (antibody, V domains shown) VH: QVQRVQSGAEVKKPGSSVKVSCKASGGTFSSYAFSWVRQAPGQGLEWMGGIIPILRIADYAQKFQGRVTITADKSTSTAFMELSSLRSEDTAVYYCARGQIELVPAARVDYFDYWGQGTLVTVSS VL: DIQLTQSPSSLSASVGDRVTITCRASQSISSYLNWYQQKPGKAPKLLIYAASSLQSGVPSRFSGSGSGTDFTLTISSLQPEDFATYYCQQSYTTSFGPGTKVDIK | binds | 0.00933 µg/mL |
| JR215 (antibody, V domains shown) VH: QVQLVQSGAEVKKPGASVKVSCKASGYTFTGYYMHWVRQAPGQGLEWMGRINPNSGDTNFPQKFQGRVTMTRDTSISTAYMELSRLRSDDTAVYYCARDGVADFNYDYWGQGTLVTVSS VL: LTQPASVSGSPGQSITISCTGSSSDVGSYNLVSWYQQHPGKAPKLMIYEVSRRPSGVSNRFSGSKSGNTASLTISGLQAEDEADYYCCSYAGSSTWEVLFGGGTKLTVL | binds | 0.0448 µg/mL |
| JR041 (antibody, V domains shown) VH: EVQLVESGGGLVQPGRSLRLSCAASGFTFDDYAMYWVRQAPGKGLEWVSGISWNSGSIGYADSVKGRFTISRDNAKNSLYLQMNSLRAEDTALYYCAKDISYHTGTIDYWGQGTLVTVSS VL: QSALTQPASVSGSPGQSITISCTGTSSDIGGYNYVSWYQQHPGKAPKLMIYDVSNRPSGVSNRFSGSKSGNTASLTISGLQAEDEADYYCSSYTSSSTLGVGGGTKLTVL | binds | 0.0547 µg/mL |
| JR216 (antibody, V domains shown) VH: QLQLQESGPGLVKPSETLSLTCTVSGGSISSGSYFWGWIRQPPGKGLEWIGNIYNSGSTYYSPSLKSRVTISVNTSKNQFSLKMSSVTAADTAVYYCARQPWLRSQFDYWGQGTLVTVSS VL: NFMLTQPHSVSESPGKTVTISCTGSSGSIASNYVQWYQQRPGSAPTNVIYEDNQRPSGVPDRFSGSIDSSSNSASLTISGLKTEDEADYYCQSYDSSTVVFGGGTKLTVL | binds | 0.0458 µg/mL |
| JR092 (antibody, V domains shown) VH: QVQLVESGGGLVKPGGSLRLSCAASGFTFSDYYMSWIRQAPGKGLEWVSYSSSRGSIIHYADSVKGRFTISRDNAKNSLCLQMNSLRAEDTAVYYCARATTPYSGYSMWGQGTLVTVSS VL: NFMLTQPHSVSESPGKTVTISCTGSSGSIASNYVQWYQQRPGSAPTTVIYEDNQRPSGVPDRFSGSIDSSSNSASLTISGLKTEDEADYYCQSYDSSNWVFGGGTKLTVL | binds | 0.109 µg/mL |
| JR210 (antibody, V domains shown) VH: EVQLVESGGGLVQPGGSLRLSCAASGFTFSNYWMTWVRQAPGKGLEWVANIKQDGSEKYYVDSVKGRFTISRDNAKNSLYLQMNSLRAEDTAVYYCARDLAVAISWFDPWGQGTLVTVSS VL: NFMLTQPHSVSESPGKTVTMSCTRSSGSIASNYVQWYQQRPGSSPTTVIYEDNQRPSGVPDRFSGSIDSSSNSASLTISGLKTEDEADYYCHSYDSPRVVFGGGTKLTVL | binds | 0.0897 µg/mL |
| JR043 (antibody, V domains shown) VH: QVQLVQSGAEVKKPGASVKVSCKASGYTFTRNYMHWVRQAPGQGLEWMGIINPSGGSTSYAQKFQGRVTMTRDTSTSTVYMELSSLRSEDTAVYYCARVDSSSWSHCDYWGQGTLVTVSS VL: DIQLTQSPSSLSASVGDRVTITCRASQSISTYLNWYQQNPGKAPKLLIYGASNLQSGVPSRFSGSGSGTDFTLTISSLQPEDFATYYCQQSYSTLEITFGQGTRLEIK | binds | 0.00587 µg/mL |
| JR086 (antibody, V domains shown) VH: QVQLVQSGAEVKKPGASVKVSCKASGYTFTGYYMHWVRQAPGQGLEWMGWINPISGATNYAQKFQGGVTMTRDTSISTAYMELSRLRSDDTAVYYCARVNHIVVVTAIDPIYGMDVWGQGTTVTVSS VL: QSALTQPASVSGSPGQSITISCTGTSSDVGGYNYVSWYQQHPGKAPKLMIYEVSNRPSGVSNRFSGSKSGNTASLTISGLQAEDEADYYCSSYTSSSTLYYVFGTGTKVTVL | binds | 0.0358 µg/mL |
| JR174 (antibody, V domains shown) VH: QVQLVQSGAEVKKPGSSVKVSCKASGGTFSSYAISWVRQAPGQGLEWMGGIIPIFGTAHYAQKFQGRVTITADESTSTAYMELSSLRSEDTAVYFCARDLGGIQLYLLAYWGQGTLVTVSS VL: EIVLTQSPVTLSLSPGERATLSCRASQSVSSTYLAWYQQKPGQAPRLLIYGASSRATGIPDRFSGSGSGTDFTLTISRLEPEDFAVYYCQQYVGSPGTFGQGTKVEIK | binds | 0.0798 µg/mL |
| JR212 (antibody, V domains shown) VH: QVQLVQSGAEVKKPGSSVKVSCKASGGTFSNYAISWVRQAPGQGLEWMGGIIPLFGTTNYAQKFQGRVTITADESTSTAYMELSSLRSEDTAMYYCASYSSGYHLVTDYWGQGTLVTVSS VL: EIVLTQSPGTLSLSPGERATLSCRASQSVTSSYLAWYQQKPGQAPRLLIYGASSRATGIPDRFSGSGSGTDFTLTISRLEPEDFAVYYCQQYGTSRTFGQGTKVEIK | binds | 0.178 µg/mL |
| JR042 (antibody, V domains shown) VH: EVQLVESGGGLIQPGGSLRLSCVASGVTVSSNYMSWVRQAPGKGLEWVSVIYPGGTTYYADSVKGRFTISRDNSKNTLYLQMTSLRAEDTAVYYCARGGDYHYGMDVWGQGTTVTVSS VL: DIQLTQSPSFLSASVGDRVTITCRASQGISSYLAWYQQKPGKAPKLLIYAASTLQSGVPSRFSGSGSGTEFTLTISSLQPEDFATYYCQLLNSYPPTFGQGTKLEIK | binds | 0.0209 µg/mL |
| JR039 (antibody, V domains shown) VH: QLQLQESGPGLVKPSETLSLTCTVSGGSISSSSYYWGWIRQPPGKGLEWIGSIYYSGSTYYNPSLKSRVSISVDTSKNQFSLKLSSVTAADTAVYYCARPGPAYYDRSGYYRAEYFQRWGQGTLVTVSS VL: AIRMTQSPSSLSASVGDRVTITCQASQDISDYLSWYQQKPGKAPKLLIYDASNLETGVPSRFSGSGSGTDFTFTISSLQPEDIATYYCQQYDNLPLTFGGGTKVEIK | binds | 0.0219 µg/mL |
| JR328 (antibody, V domains shown) VH: EVQLVESGGGLIQPGGSLRLSCAASGVIVSRNYMSWVRQAPGKGLEWVAVIYSGGSTFYADSVKGRFTISRDDSKNTLFLQMNALRAEDTAVYYCARDGDYYGMDVWGRGTTVTVSS VL: DIQLTQSPSFLSASVGDRVTITCRASQGISNYLAWYQQKPGTAPRLLIYAAFTLQSGVPSRFSGSGSGTEFTLTISSLQPEDFATYYCQQLNTYPGFTFGPGTKVDIK |  | 0.0167 µg/mL |
| JR177 (antibody, V domains shown) VH: QVQLVESGGGVVQPGRSLRLSCAASGFTLSSYAMHWVRQAPGKGLEWVALILYDGSNKYYADSVKGRFTISRDNSKNTVYLQMNSLRAEDTAVYYCARVRVWGRVVVAASFYYGMDVWGQGTTVTVSS VL: not shown | binds | 0.00328 µg/mL |
| JR049 (antibody, V domains shown) VH: EVQLVESGGGLVQPGGSLRLSCAASGFTFSSYDMHWVRQVTGKGLEWVSGIGTAGDTYYRDSVKGRFTISRENAKKSLYLQMNSLRAGDTAVYYCARDNGALYYYGSGAMDVWGKGTTVTVSS VL: not shown | binds | > 1 µg/mL |
| JR309 (antibody, V domains shown) VH: EVQLVESGGGLVQPGRSLRLSCAASGFTFDDYAIHWVRQAPGKGLEWVSGSSWNSGTIGYADSVKGRFTISRDNAKNSLYLQMNSLRAEDTALYYCAKDWGTGDYNSYYFDYWGQGTLVTVSS VL: SYELTQPPSVSVAPGKTARITCGGNNIGSKSVHWYQQKPGQAPVVVVYDDSDRPSGNPERFSGSNSGNTATLTIRRVEAGDEADYYCQVWDSNSDQYVFGTGTKVTVL | binds | 0.0155 µg/mL |

Reference: article PMC9253517 (The Journal of Experimental Medicine, 2022)
